{
  "source": "IntAct's records for PubMed 37100772",
  "parents": {"B1": {"name": "Nucleoprotein (Human coronavirus 229E), P15130 (parent)", "chain": "MATVKWADASEPQRGRQGRIPYSLYSPLLVDSEQPWKVIPRNLVPINKKDKNKLIGYWNVQKRFRTRKGKRVDLSPKLHFYYLGTGPHKDAKFRERVEGVVWVAVDGAKTEPTGYGVRRKNSEPEIPHFNQKLPNGVTVVEEPDSRAPSRSQSRSQSRGRGESKPQSRNPSSDRNHNSQDDIMKAVAAALKSLGFDKPQEKDKKSAKTGTPKPSRNQSPASSQTSAKSLARSQSSETKEQKHEMQKPRWKRQPNDDVTSNVTQCFGPRDLDHNFGSAGVVANGVKAKGYPQFAELVPSTAAMLFDSHIVSKESGNTVVLTFTTRVTVPKDHPHLGKFLEELNAFTREMQQHPLLNPSALEFNPSQTSPATAEPVRDEVSIETDIIDEVN"}},
  "data": [
    {"variants_of": "B1", "conditions": "with pabp1_human PABPC1, P11940", "values": [
      {"variant": "L354A;N355G;P356G;A358G;F361A;N362A;P363G", "effect of a mutation on the interaction": "disrupting interaction strength"}
    ]}
  ]
}
